Legend:
[1] = biological target: T1, TRAITS (TID-1/U19) (Rattus norvegicus, UniProt Q811X5 SEQ:1-262); assay: EMSA; complex competed by 5x, 25x, 125x cold T-wt; poly[dI-dC] present; conditions: tags: GST fusion (pGEX-2T, E. coli); label: 32P 5' end
Source text: (§1) The binding of GST-TRAITS fusion protein to labeled T-box containing DNA forms a DNA-protein complex (C), which can be competed in the presence of indicated fold (5×, 25×, or 125×) molar excess of cold T-wt but not by cold T-mut (ACTgTA). A non-specific complex (*) in the presence of GST-TRAITS was also formed in the presence of GST only. Labeled free DNA (F) was also indicated. […] NIH3T3 cells were transiently transfected with empty vector (PM) or vectors expressing the full-length rat TRAITS (residues 1-262 of SEQ ID NO: 14), its N-terminal (residues 1-113 of SEQ ID NO: 14), or its C-terminal (residues 114-262 of SEQ ID NO: 14) plus pG5CAT reporter and pSV-β-gal for normalization. Assays were performed after 24 hours of transfection. The fold activation of CAT reporter is shown with S.E.M. Assays were performed in triplicate in two separate experiments.
(§2) T-wt: (5′-[…] GAAGCTTACGTCGCG-3′ SEQ ID NO: 33) and T-mut: (5′-[…] CGAAGCTTACGTCGCG-3′ SEQ ID NO: 34) were synthesized and amplified by PCR. T4 polynucleotide kinase (Promega) was used to label T-wt & T-mut by [γ-³²P] ATP (NEN). Recombinant GST-TRAITS fusion protein was incubated with […] poly [dI-dC] and EMSA was performed according to the protocol provided by Gel Shift Assay System (Promega).

[2] = biological target: T1, TRAITS (TID-1/U19); assay: competition; cold T-mut up to 125x molar excess does not compete for labeled T-wt complex; legend prints ACTgTA but sequence has ACGTTA; conditions: tags: GST fusion (pGEX-2T, E. coli)
Source text: as §1, §2

T1 sequence (Q811X5 whole entry, the tested form may be a part): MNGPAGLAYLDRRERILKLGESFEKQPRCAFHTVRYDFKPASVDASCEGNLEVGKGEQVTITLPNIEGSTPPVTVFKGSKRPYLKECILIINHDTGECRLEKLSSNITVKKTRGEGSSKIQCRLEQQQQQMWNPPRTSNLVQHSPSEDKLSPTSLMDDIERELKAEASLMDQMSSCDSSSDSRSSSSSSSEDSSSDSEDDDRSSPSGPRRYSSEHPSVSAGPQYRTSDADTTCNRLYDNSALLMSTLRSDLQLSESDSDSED

| Binder | binding result [1] | binding result [2] |
| --- | --- | --- |
| T-wt (T-box ACTTTA) (dsDNA) DNA 1: GTCTGTCTGGATCCGAGGTGAGTACTGACTTTACACACGTCTTCCGAAGCTTACGTCGCG DNA 2: CGCGACGTAAGCTTCGGAAGACGTGTGTAAAGTCAGTACTCACCTCGGATCCAGACAGAC | binds | – |
| T-mut (dsDNA) DNA 1: GTCTGTCTGGATCCGAGGTGAGTACTGACGTTACACACGTCTTCCGAAGCTTACGTCGCG DNA 2: CGCGACGTAAGCTTCGGAAGACGTGTGTAACGTCAGTACTCACCTCGGATCCAGACAGAC | – | no binding |

Reference: patent US20030039970, “Method for prognosing cancer and the proteins involved” (published 2003)
